Source: PMC5218472 (PLoS Biology, 2017)

Test system: ADAM10
Assay: Ionomycin-induced ADAM10-mediated IL-6R ectodomain shedding in transiently transfected HEK293 cells, sIL-6R ELISA
Type: cell-based, human
Details: for sIL-6R shedding, Figure S4E, mean / sIL-6R shedding, Figure S4B, mean: normalised to PV Iono = 100; for sIL-6R shedding, Figure S4G, mean: normalised to PVQD Iono = 100
Excerpt: Analysis of IL-6R ectodomain shedding in transiently transfected HEK293 cells or stably transduced Ba/F3-gp130 cell lines by ADAM10 and ADAM17 has been described elsewhere. Analysis of IL-6R proteolysis by CG has been described previously.
The sandwich ELISA, which detects sIL-6R as well as ds-sIL-6R (4-11/Baf227 antibodies) and can be used to quantify total sIL-6R serum levels, was described previously. To specifically detect ds-sIL-6R (either recombinant or in human serum), a similar approach was used (ds6R/Baf227). Both sandwich ELISAs were performed with streptavidin-horseradish peroxidase (R&D Systems, Minneapolis, Minnesota, US) and the peroxidase substrate BM blue POD (Roche, Mannheim, Germany). The enzymatic reaction was stopped by addition of 1.8 M sulfuric acid, and the absorbance read at 450 nm on a Tecan rainbow reader (Tecan, Crailsheim, Germany).
Supplementary file pbio.2000080.s004.tif: S4 Fig Mutation of Val-356 is sufficient to block ADAM10-mediated proteolysis of the IL-6R and the Asp358Ala variant. (A) HEK293 cells were transiently transfected with Expression plasmids encoding the wildtype IL-6R (PV) or the double mutants (IE, DG) as indicated. Cells were either treated with 1 μM ionomycin for 1 h or DMSO as vehicle control. sIL-6R was precipitated from the supernatant with concanavalin A-covered Sepharose beads, and cells were lysed. Both were analyzed via Western blot, and β-actin served as loading control. One out of three experiments with similar outcome is shown. (B, C) The experiment was performed as described under (A), but sIL-6R generation was analyzed via ELISA. In (B), the amount of sIL-6R generated after ionomycin-stimulation of the wildtype IL-6R (PV) was set to 100%, and all other values were calculated accordingly. In (C), the amount of sIL-6R without stimulation was considered as constitutive shedding and set to 1 and the increase of sIL-6R was calculated. Data shown are the mean ± SD from at least three independent experiments (*p<0.05, ns = no significant difference). (D-F) HEK293 cells were transiently transfected with expression plasmids encoding the wildtype IL-6R (PV) or the single mutants (DV, IV, PE, PG) as indicated. The experiments were performed as described in (A) to (C). (G) ADAM10-mediated proteolysis of the IL-6R variants depicted in Fig 4I was analyzed as described in (B). (H) Equal numbers of Ba/F3-gp130-IL-6R_DG cells were incubated for 48 h with increasing amounts (0–100 ng/ml) of either IL-6 or Hyper-IL-6. One representative experiment out of three performed is shown (mean ± SD, biological triplicates). (TIF) Click here for additional data file.

B1: PV: wild-type human IL-6R, cleavage site Pro-355/Val-356 (protein)
chain: LAPRRCPAQEVARGVLTSLPGDSVTLTCPGVEPEDNATVHWVLRKPAAGSHPSRWAGMGRRLLLRSVQLHDSGNYSCYRAGRPAGTVHLLVDVPPEEPQLSCFRKSPLSNVVCEWGPRSTPSLTTKAVLLVRKFQNSPAEDFQEPCQYSQESQKFSCQLAVPEGDSSFYIVSMCVASSVGSKFSKTQTFQGCGILQPDPPANITVTAVARNPRWLSVTWQDPHSWNSSFYRLRFELRYRAERSKTFTTWMVKDLQHHCVIHDAWSGLRHVVQLRAQEEFGQGEWSEWSPEAMGTPWTESRSPPAENEVSTPMQALTTNKDDDNILFRDSANATSLPVQDSSSVPLPTFLVAGGSLAFGTLLCIAIVLRFKKTWKLRALKEGKTSMHPPYSLGQLVPERPRPTPVLVPLISPPVSPSSLGSDNTSSHNRPDARDPRSPYDISNTDYFFPR
modifications: N-linked glycans at Asn-55, Asn-93, Asn-221, Asn-245 and Asn-350, O-linked glycan at Thr-352 (mapped on sIL-6R shed from transfected HEK293 cells)
Mean of n = 3
  ratio of sIL-6R Iono / DMSO, Figure S4F, mean: 3.48
Mean of replicates
  ratio of sIL-6R Iono / DMSO, Figure S4C, mean: 2.623
Treatment DMSO, mean of n = 3
  sIL-6R shedding, Figure S4E, mean: 35.7033
  sIL-6R shedding, Figure S4G, mean: 48.1333
Treatment DMSO, mean of replicates
  sIL-6R shedding, Figure S4B, mean: 40.5833
Treatment Iono, mean of n = 3
  sIL-6R shedding, Figure S4E, mean: 100
  sIL-6R shedding, Figure S4G, mean: 100
Treatment Iono, mean of replicates
  sIL-6R shedding, Figure S4B, mean: 100
